According to patent publication US20190314479A1:

Target: HLA-A2 molecules
Assay: T2A2 peptide binding assay to HLA-A2

Row | Binder | T2A2 Binding
1 | QQYNKPLCDL (modifications not checked) [HPV-16 E6 native peptide E6-3 (E6 90-99)] | 1020
2 | YMLDLQPET (modifications not checked) [HPV-16 E7 native peptide E7-1 (E7 11-19)] | 1100
